{"source": "paper PMC3530481", "target": "collagen VI tetramers from bovine cornea (bovine)", "assay": "ELISA; solid-phase binding: collagen VI tetramers coated (10 ug in 100 ul TBS, overnight 4 C), recombinant WARP dimer 0-1 uM in TBS, 1 h at room temperature, detected with sheep anti-WARP serum; Scatchard analysis, apparent Kd"}
{"binder": "recombinant human WARP (von Willebrand factor A-domain related protein), dimer (natural protein) ERGPPASAPRGDLMFLLDSSASVSHYEFSRVREFVGQLVAPLPLGTGALRASLVHVGSRPYTEFPFGQHSSGEAAQDAVRASAQRMGDTHTGLALVYAKEQLFAEASGARPGVPKVLVWVTDGGSSDPVGPPMQELKDLGVTVFIVSTGRGNFLELSAAASAPAEKHLHFVDVDDLHIIVQELRGSILDAMRPQQLHATEITSSGFRLAWPPLLTADSGYYVLELVPSAQPGAARRQQLPGNATDWIWAGLDPDTDYDVALVPESNVRLLRPQILRVRTRPGEAGPGASGPESGAGPAPTQLAALPAPEEAGPERIVISHARPRSLRVSWAPALGSAAALGYHVQFGPLRGGEAQRVEVPAGRNCTTLQGLAPGTAYLVTVTAAFRSGRESALSAKACTPDGPRPRPRPVPRAPTPGTASREP", "values": [{"measurement": "Kd", "result": 22, "unit": "nM"}]}
